Legend:
Assay type in all cases: in vivo, athymic nude mice
[1] = tested on: human breast tumor xenografts (MDA-MB-468); assay: Human breast cancer (MDA-MB-468) xenograft, moderate tumors ~145 mm^3 (Example 3); conditions: start ~145 mm^3; i.v.; 1×10^9 minicells per dose; IFN-gamma 0.5×10^4 IU per dose; by day 30, six doses
Procedure: (§1) As described above, minicells were purified, packaged with doxorubicin, and targeted using single chain bispecific antibody with anti-O-polysaccharide and anti-EGFR specificities. Additionally, human breast cancer cells (MDA-MB-468; ATCC) were established as xenografts in nu/nu mice, and tumor volumes were measured, also as described.
The treatments commenced when the tumors reached a mean of ˜145 mm^3, and mice were randomized to four different groups of seven mice per group. All treatments were administered i.v. in a total volume of 100 μl. All minicell doses contained 1×10^9 minicells of the respective type.
The experiment was designed as follows: Group 1 (control) received sterile physiological saline only. Group 2 (control) received IFN-gamma (0.5×10^4 IU) per dose.

[2] = tested on: human alveolar adenocarcinoma tumor xenografts (A549); assay: Human alveolar adenocarcinoma (A549) xenograft, tumors ~285 mm^3 (Example 2); conditions: start ~285 mm^3; i.v.; 1×10^9 minicells per dose; IFN-gamma 0.5×10^4 IU per dose; by day 43, six doses
Description: As described above, minicells were produced from an S. typhimurium minCDE-mutant strain and were purified using a gradient centrifugation/filamentation/filtration/endotoxin removal procedure previously described in MacDiarmid et al. (2007). The purified minicells were packaged with chemotherapeutic drug doxorubicin, also per MacDiarmid et al. (2007).
The bispecific antibody (BsAb) was a single polypeptide containing binding specificity respectively for S. typhimurium O-polysaccharide, present on minicells, and for human EGFR, overexpressed on alveolar adenocarcinoma cells. The O-polysaccharide specificity was derived from a mouse monoclonal antibody, for which the variable regions were isolated from a hybridoma cell line and presented as a single-chain variable fragment (scFv). The hybridoma cell line was prepared by immunizing mice with purified LPS and fusing the lymphocytes with tumor cells. Subsequently, the clones were screened for an antibody capable of binding the O-polysaccharide. The EGFR specificity, also presented as an scFv, was derived from the commercial antibody Erbitux® (Bristol Myers Squibb, USA). […]
The resulting tumors were measured twice a week, using an electronic digital caliper (Mitutoyo, Japan, with a measure accuracy of +/−0.001 inch), and mean tumor volume was calculated using the formula length (mm)×width (mm^2)×0.5=volume (mm^3). […]

[3] = tested on: human breast tumor xenografts (MDA-MB-468); assay: Human breast cancer (MDA-MB-468) xenograft, large tumors ~250 mm^3 (Example 4); conditions: start ~250 mm^3; i.v.; 1×10^9 minicells per dose; IFN-gamma 0.5×10^4 IU per dose; by day 28, 3 doses
Procedure: as §1, with “doxorubicin” for “doxorubicin,”, “Human” for “Additionally, human”, “(MDA-MB-468)” for “(MDA-MB-468; ATCC)”, “described above.” for “described.”
The treatments were begun when the tumors reached a mean of ˜250 mm^3. As above, mice were randomized to four different groups of seven mice per group. The i.v. administration and minicell doses were as above, too.
The experiment was designed as follows. Group 1 (control) received sterile physiological saline only. Group 2 (control) received IFN-gamma (0.5×10^4 IU) per dose.

Measured: anti-tumor effect (tumor volume)

B1: IFN-gamma: interferon-gamma protein; given i.v. to mice, or endogenous serum level in dogs (protein, UniProt P01580 23-155, looked up)
Interferon gamma: HGTVIESLESLNNYFNSSGIDVEEKSLFLDIWRNWQKDGDMKILQSQIISFYLRLFEVLKDNQAISNNISVIESHLITTFFSNSKAKKDAFMSIAKFEVNNPQVQRQAFNELIRVVHQLLPESSLRKRKRSRC
no anti-tumor efficacy: all assays above

Reference: patent US9731011B2, “Combination tumor treatment with drug-loaded, bispecific ligand-targeted minicells and interferon-gamma” (EnGeneIC Molecular Delivery Pty Ltd, priority 2013, dated 2017)
